Test results reported in patent CN111620945A (JIANGSU DISEASE CONTROL AND PREVENTION CENTER JIANGSU …, dated 2020).

B1: FC05 (antibody, V domains shown)
VH: VQLLEQSGAEVKKPGASVRVSCKVSGYTLPEVAMHWVRQAPGKGLEWMGGFDPEDGETIYAQKFQGRVTMTEDTSTDTAYMELSSLRSEDTAVYYCATTTPFSSSFWFDPWGQGTLVTVSS
VL: QSVLTQAPSVSGAPGQKVTISCSGSSSNIGNNYVSWYQQLPGTAPKLLIYDNNKRPSGIPDRFSGSKSGTSATLGITGLQTGDEADYYCGTWDSSLSAVVFGGGTKLTVL
B2: FC08 (antibody, V domains shown)
VH: VQLLQQSGAEVKKPGSSVKVSCKASGGTFSSYAISWVRQAPGQGLEWMGGIIPILGIANYAQKFQGRVTITADKSTSTAYMELSSLRSEDTAVYYCVRERGYSGYGAAYYFDYWGQGTLVTVSS
VL: QSVLTQPPSVSGAPGQRVTISCTGSSSNIGAGYDVHWYQQLPGTAPKLLIYGNSNRPSGVPDRFSGSKSGTSASLAITGLQAEDEADYYCQSYDSSLSGSVFGGGTKLTVL
notes: also called FC08抗体
B3: FC11 (antibody, V domains shown)
VH: EVQLLESGGGVVQPGRSLRLSCAASGFTFSYYGMHWVRQAPGTGLEWVAVISYDGSNEYYADSVKGRFTISRDNSKNTLYLQMNSLRAEDTAVYYCAKAMFLGDSSGLTGLDMDVWGQGTTVTVSS
VL: DIELTQSPGTLSLSPGERATLSCRASQSVSSYLAWYQQKPGQAPRLLIYDASNRATGIPARFSGSGSGTDFTLTISSLEPEDFALYYCQQRGNWPPTFGGGTKLEIK

Key:
[1] = biological target: SARS-CoV-2 Spike蛋白(刺突蛋白) of the isolate BetaCoV/JS03/human/2020, on live virus (SARS-CoV-2, UniProt P0DTC2 14-1273); experiment: cell-based or functional assay
[2] = biological target: SARS-CoV-2 Spike蛋白(刺突蛋白) of the isolate BetaCoV/JS03/human/2020, on live virus (SARS-CoV-2, UniProt P0DTC2 14-1273); experiment: cell-based or functional assay; remark: listed apart in the source
[3] = biological target: 重组SARS-CoV-2刺突蛋白胞外区 (extra cellular domain of spike protein, S-ECD) (SARS-CoV-2, UniProt P0DTC2 14-1213); experiment: SPR, Biacore 8K, S-ECD immobilised on a CM5 chip, antibody 125-7.8 nM
[4] = biological target: 重组SARS-CoV-2刺突蛋白胞外区 (extra cellular domain of spike protein, S-ECD) (SARS-CoV-2, UniProt P0DTC2 14-1213); experiment: as above; remark: listed apart in the source

Binder	IC50(ng/ml), 体外中和实验 (live virus, Vero E6, CPE) [1] [ng/mL]	IC50(ng/ml), 体外中和实验 (live virus, Vero E6, CPE) [2] [ng/mL]	Kd [3] [nM]	Kd [4] [nM]
B1	142			
B2		325	0.8	
B3	818			0.5
